T1: N-acetyl-alanyl-alanyl-dioleoyl phosphatidylethanolamine
T1 chain: AA

T2: MeO-suc-ala-ala-pro-val-DOPE (1,2-Dioleoyl-sn-glycero-3-phosphoethanolamido-val-pro-ala-ala-sucMeO)
T2 chain: AAPV

B1: proteinase K (protein)
chain: AAQTNAPWGLARISSTSPGTSTYYYDESAGQGSCVYVIDTGIEASHPEFEGRAQMVKTYYYSSRDGNGHGTHCAGTVGSRTYGVAKKTQLFGVKVLDDNGSGQYSTIIAGMDFVASDKNNRNCPKGVVASLSLGGGYSSSVNSAAARLQSSGVMVAVAAGNNNADARNYSPASEPSVCTVGASDRYDRRSSFSNYGSVLDIFGPGTSILSTWIGGSTRSISGTSMATPHVAGLAAYLMTLGKTTAASACRYIADTANKGDLSNIPFGTVNLLAYNNYQA
B2: Human leukocyte elastase (protein)
chain: IVGGRRARPHAWPFMVSLQLRGGHFCGATLIAPNFVMSAAHCVANVNVRAVRVVLGAHNLSRREPTRQVFAVQRIFENGYDPVNLLNDIVILQLNGSATINANVQVAQLPAQGRRLGNGVQCLAMGWGLLGRNRGIASVLQELNVTVVTSLCRRSNVCTLVRGRQAGVCFGDSGSPLVCNGLIHGIASFVRGGCASGLYPDAFAPVAQFVNWIDSIIQ

What was measured:
[1] = molecular target: T1, N-acetyl-alanyl-alanyl-dioleoyl …
[2] = molecular target: T2, MeO-suc-ala-ala-pro-val-DOPE …

Protein	cleavage of N-Ac-AA-DOPE to DOPE, TLC [1]	cleavage of N-Ac-AA-DOPE, HPLC [1]	cleavage of N-Ac-ala-ala-DOPE, HPLC [1]	conversion of N-acetyl-ala-ala-DOPE to DOPE, 31P NMR integration [1]	cleavage of MeO-suc-ala-ala-pro-val-DOPE, TLC, HLE dose titration [2]	conversion of MeO-suc-AAPV-DOPE to DOPE, 31P-NMR [2]	conversion of exposed (outer leaflet) MeO-suc-AAPV-DOPE to DOPE, 31P-NMR, assuming unilamellar vesicles [2]	kinetics of cleavage of MeO-suc-ala-ala-pro-val-DOPE, TLC [2]
B1	Upon incubation of N-Ac-AA-DOPE liposomes with proteinase K the peptide-lipid was cleaved and DOPE was generated	Both elastase and proteinase K cleaved N-Ac-AA-DOPE to a similar extent	both proteinase K, with a known cleavage site, and the nonspecific mixture of proteases found in pronase, effected cleavage of N-Ac-ala-ala-DOPE from the liposomes	approximately 20% of the N-acetyl-ala-ala-DOPE was converted to pure DOPE in sample B				
B2	Treatment of N-Ac-AA-DOPE liposomes with elastase generated a product corresponding to DOPE	Both elastase and proteinase K cleaved N-Ac-AA-DOPE to a similar extent			between 5-40 micrograms of HLE were effective in cleaving the AAPV-PE	Treatment with 5 micrograms of elastase/100 nmol lipid yielded 20% DOPE	the minimal percentage conversion of exposed MeO-suc-AAPV-DOPE (SEQ ID NO:42) to DOPE in the outer leaflet lipid of this preparation was 40%	The peptide was cleaved by HLE in as little as 1 hour at 37 degrees C.

Source: patent publication US6339069
